Measurements published in the nanobody polyreactivity screen of Harvey et al. (2022).

Test: yeast display, Sf9 membrane polyspecificity reagent, FACS + sequencing; frameworks hold sequencing errors
How it was run: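 A synthetic nanobody library was expressed on Saccharomyces cerevisiae BJ5465 by galactose induction for 36–48 hours. The library was stained for 1 hour at 4 °C with 10% biotinylated, detergent-solubilized Sf9 membrane reagent and enriched with streptavidin microbeads before FACS. Low and high (top ~1%) gates were set on anti-HA fluorescence for expression and streptavidin fluorescence for reagent binding, and each polyreactivity label reflects the gate of origin.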

Sequence | polyreactivity (PSR sort gate)
QVQLVESGGGLVQAGGSLRLSCAASGSIFEDYTRGWYRQAPGKERELVAAIDWSDASTFYADSVKGRFTISRDNAKNTVYLQMSLNPEDTAVYYCNVAIIFYDDDYWGQGTQVTVSS | high polyreactivity
QVQLVESGGGLVQAGGSLRLSCAASGRIFAYYAMGWYRQAPGKERELVAAITSDGSSTYYADSVKGRFTISRDNAKNTVYLQMNSLKPEDTAVDYCAAGTYPFWDWIFDLWVDYWGQGTQVTVSS | high polyreactivity
QVQLVESGGGLVQAGGSLRLSCASSGRTIGVYAMGWYRQAPGKERELVAAISWSGGTTYYADSVKGRFTISRDNAKNTVYLQMNSLKPEDTAVYYCAADSYTEVDYWGQGTQVTVSS | low polyreactivity
QVQLVESGRGLVQAGGSLRLSCAASGFTFAPNAMGWYRQAPGKDRELVARIDRAGSTYYADSVKGRFTISRDNAKNTVYLQMNSLKPEDTAVYYCATDYHGQPSPPYQSIKVDYWGQGTQVTVSS | low polyreactivity
QVQLVESGGGLVQAGGSLRLSCAASGYIFLGNAMGWYRQAPGKERELVAAISRSGGSTYYADSVKGRFTISRDNAQNTVYLQMNSLKPEDTAVYYCNRDRQKIGYTYKYDYWGQGTQVTVSS | high polyreactivity
QVQLVESGGGLVQAGGSLRLSCAASGFILNKNVMGWYRQAPGKERELVAAITASGSSTYYADSVKGRFTISRDNAKNTVYLQMNSLKPEDTAVYYCAARGYWSSYAPRFNYWVQGTQVTVSS | high polyreactivity
QVQLVESGGGLVQAGGSLRLSCAASGRIISVYAMGWYRQAPGKERELVATITGGNTNYADSVKGRFTISRDNAKNTVYLQMNSLKPEDTAVYYCAKQFLPSGVYYEYDSWGQGTQVTVSS | low polyreactivity
QVLLVESGGGLVQAGGSLRLSCAASGIIFYRNAMGWYRQAPGKERELVAVITASGGHTYYADSVKGRFTISRDNAKNTVYLQMNSLKPEDTAVYYCNRELTSPRRWHVSRADDYWGQGTQVTVSS | low polyreactivity
QVQLVESAGGLVQAGGSLRLSCAPSGSILASNAMGCYRQAPGKDRELVSAITTSGGSTYYADYVKGRFTISLDNAKNTVYLQMNSLKPEDTAVYYCNAEYSRGRWLRYGYWGQGTQVTVSS | high polyreactivity
QVQLVESGGGLVQAGGSLRLSCAASGFIFYYYAMGWYRQAPGKERELVATITSGGGTYYADSVKGRFTISRDNAKNTVYVQMISLKPEDTAVYYCAKRDLEQSAFLGYDYWGQGTQVTVSS | low polyreactivity
QVQLVESGGGLVQAGGSLRLSCAASGRTFHRYAMGWYRQAPGKERELVAAITYRGGRTYYADSVKGRFTISRDNANNTVYLQMNSLKPEDTAVYYCNTTQYSPIHDPGDYWGQGTQVTVSS | low polyreactivity
QVQLVESGGGLVQAGGSIRLSCAASGSIFLGYAMGSYRQATGKETELFAAISSGGTRTYYADSVKGRFTITRDNAKNTVYLQMNCLKPEDTAVYYCSARYIPIQYPSYRTWGGYSWGQGTQVTVSS | high polyreactivity
QVQLVESGGGLVQAGGSLRLSCAASGSTFIANTMGWYRQAPGKERELVAAITDSGGSTYYADSVKGRFTISRDNAKNTVYLQMNSLKPEDTAVYYCNADYVYVFIRAWSYDYWGQGTQVTVSS | low polyreactivity
QVQLVESGGGLVQAGGSLRLSCAASGRIFSKNAMGWYRQAPGKEMEFVATISYGDGSTYYADSVKGRFTISRDNAKNTVYLQMNSLKPEDTAVYYCAATIGHNGFDYWGQGTQVTVSS | low polyreactivity
QVQLVESGGGLVQAGGSLRLSCAASGRTFAFYAMGWYRQAPGKERELVASISSSGDRTYYADSVKGRFTISRDNAKNTVYLQMNSLKPEDTAVYYCAARWRYTYYYWGQGTQVTVSS | high polyreactivity
QVQLVESGGGLVQAGGSLRLSCAASGSIFRYYAMGWYRQAPGQERELVAAISRRGSSTYYADSVKGRFTISRDNAKNTVYLQLNSLKPEDTAVYYCAARSRHSGLTQPTLDYWGQGTQVTVSS | high polyreactivity
QVQLVESGGGLVQAGGSLRLSCAASGSIFSDNVMGWYRQAPGKERELVAAIRDGDTTNYADSVKGRFTISRDNAKNTVYLQMNCLKPEDTAVYYCAAVQASSPDYSYAYLDGDRDYWGQGTQVTVSS | low polyreactivity
QVQLVESGGGLVQAGGSLRLSCSASGSTFYRKTMGWYRQAPGKERELVAAISSGGGTKYADSVKGRFTISRDNAKNTVYLQMNSLKPEDTAVYYCAAVYYTLGYAYYPYIYYYWGQGTQVTVSS | high polyreactivity
QVQLVESGGGLVQAGGSLRLSCAASGIIFDTYVMGWYRQAPGKERELVAAITRSGGRTRYADSVKGRFTISRDNAKNTVYLQMNSLKPEDTAVYYCAARIPDRQDGYGYWGQGTQVTVSS | high polyreactivity
QVQLVESGGGLVQAGGSLRLSCAASGLIFVWYALGWSRQAPGKERELVAAISWRGGTTYYADSVKGRFTISRDNAKNTVYLQMNSLKPEDTAVYYCNAEGSQVDYLRYVWYDMDYWGQGTQVTVSS | low polyreactivity
QVHLQESGGGLVQAGGSLRLSCPASGSISRYYDMGWYRQAPGKEREFVAGISGGAITYYADSVKGRFTISRDNAKNTVYLQMNSLKPEDTAVYYCAADTGVYQYHSYWGQGTQVTVSS | low polyreactivity
QVQLVETGGGLVQAGGSLRLSCAASGYIFYVYAMGWYRQPPGKERELVAAINSGDITYYADSVKGRFTISRDNAKNTVYLQMNRLKPEDTAVYFGATVLILIYDYWGQGTQVTVSS | low polyreactivity

Sequence | polyreactivity (PSR sort gate)
QVQLVESGGGLVQAGGSLRLSCAASGSSFVYNVMGWYRQAPGKERELVAAIRWRGGSTYADSVKGRFTISRDNAKNTVYLQMNSLKPEDTAVYYCAAGIPRYWYAGHYDYWGQGSQVTVSS | low polyreactivity
QVQLVESGGGLVQAGGSLRLSCAASGSTFGYYAMGWYRQAPGKERELVASINWRGDSTYYADSVKGRFTISRDNAKNTVYLQMNSLKPEDTAVYYCNKAYRRRYVQGEYWGQGTQVSVSS | high polyreactivity
QVQLVESGGGLVQAGGSLRLSCAASGSIFYTYAMGWYRQAPGKERELVAAISRSGGSTYYADSVKGRFTISRDNAKNTVYLQMNSLKPEDTAVYYCAARPPYRVGIVPLGRREYYWGQGTQVTVSS | high polyreactivity
QVQLVESGGGLVQAGGSLRLSCAASGSIFTDYTMGWYRQAPGKERELVAAISWIGDSTDYADSVKGRFTISRDNAKNTVYLQMNSLNPEDTAVYYCAKSRAGRYNDYDYWGQGTQVTVSS | low polyreactivity
QVQLVESGGGLVQAGGSLRLSCAASGIIFGAYAMGWYRQAPGKERELVAAITYSSGSTYYADSVKGRFTISRDNAKNTVYLQMNRLKPEDTAVYYCAKTNFSQSSRSNYDYWGQGTQVTVSS | low polyreactivity
QVQLVESGGGLVQAGGSLRLSCAASGFTFRRYAMGWYRQAPGKERELVAAITRDDSTNYADSVKGRFTISRDNAKNTVYLQMNSLKPEDTAVYYCAARLWYPYYYWGQGTQVTVSS | high polyreactivity
QVQLVESGGGLVQAGGSLRLSCAASGFIFNTMGWYRQARGKERELVARITRGGSTDYADSVKGRFTISRDNAKNTVYLQMNSLKPEDTAFYYCAAAIGHFERFYWGQGTQVTVSS | low polyreactivity
QVQLVESGGGLVQAGGSLRLSCAASGRTFRVNAMGWYRQAPGKERELVAAITWRGGSTYYADSVKGRFTISRDNAKNTVYLQMNSLKPEDTAVYYCAARYSSSSRRQKSDYWGQGTQVTVSS | high polyreactivity
QVQLQESGGGLVQAGGSLRLSCAASCTISQEDWMGWYRQAPCKEREFVASIGLGSNTNYADSLKGRFTISRDNAKNTVYLKMNSLKPEYTAVYYCASEENLAYYFKYYYWGQGTQVTVSS | low polyreactivity
QVHLVESGGGLVQAGGSLRLSCAASGSTFDTYALGWYRQAPGKEWELVAAINTGGRTKYADSVKGRFTISRDNAKNTVYLQMNSLKPVDTGVYYCAARLSTTGVAYGYWGLGTQVTVSS | high polyreactivity
QVQLVESGGGLVQAGGSLRLSCAASGFTFYRNAMGWYRQAPGKERELVASISRSGGSTYYADSVKGRFTNSRDNAKNTVYLQMNSLKPEDTAVYYCAADLWWIYPHKYYYWGQGTQVTVSS | high polyreactivity
QVQLVESAGGLVQAGRSLRLSCAASGYTFAKYTKGWYREATGKERELVAAISRGGSTTYADSVKGRFTISRDNAKNTVYLQMHSLKPEDTAVYYCAADVHRVVLEYDYWGQGTQVTVSS | low polyreactivity
QVQLVESGGGLVQAGGSLRLSCAASGSTFSRYAMGWYRQAPGKERELVAAISSRGGSTYYADSVKGRFTISRDNAKNTVYLQMNSLKPEDTAVYYCNALTSYQNHVYPYDYWGQGTEVTVSS | high polyreactivity
QVQLVESGGGLVQAGGSLRLSCAASGFIFSLYAMGWYRQAPGKERELVAAISRSDDRTYYADSVKGRFTISRDDAKNTVYLQMNSLKPEDTAVYYCNVRYSYILIYEYWGQGTQVTVSS | low polyreactivity
QVQLVESGGGLVQAGGSLRLSCAASGSIFNIYARGWYRQAPGKERELVATITGIADSTYYADSVKGRFTISRDNAKNTVYLQMNSLKPEDTAVYYCNADPSGVFFYSLEFDYWGQGTQVTVSS | low polyreactivity
QVQLVESGGGLVQAGGSLRLSCAASGSTIHYYAMGWYRQAPGKERELVAAISSSGVSTYYADSVKGRFTISRDNAKNTVYLQMNSLKPEDTAVYYCNRASVFHYRWYYYGGQGTQVTVSS | high polyreactivity
QVQLVESGGGLGQAGGSLRLSCAASGFTFVFYAMGWYRQAPGKERELVAGISRTGGSTYYADSVKGRFTISRDNAKNTVYLQMNSLKPEDTAVYYCAAVSRGFGSRGYDYWGQGTQVTVSS | high polyreactivity
QVQLVESGGGLVHAGGSLRLSCAASGRTFVYYAMGWNTQAPGKERELVAAISAGGGSTYYADSEKGRFTISRDNAKITVYFQMNSLNPEDTAVYYCAADGSPEIRDNYWGQGTQVTVSS | high polyreactivity
QVQLVDSGGGLVQAGASLRLSCAASGIIFWSYTMGWYRQAPGKERELVAAINWSGTRTYYADSVKGRFTISRDNAKNTVYLQMNSLKTEDTAVYYCNADSRYRSFDYWGQGTQVTVSS | high polyreactivity
QVQLVESGGGLVQAGGSLRLSCAASGSTFNLYAMGWYRQAPGKERELVAAISDGDSSTYYADSVKGRFTISRDNAKNTVYLQMNSLKPEDTAVYYCNARDDVYLITPYFLVYVNLDYWGQGTQVTVSS | low polyreactivity
QVQLVESGGGLVQAGGSLRLSCAASGSTFSYNTMGWYRQAPGKERELVASNTRSGGSTNYADSVKGRFTISRDNAKNTVYLQMNSLKPEDTAVYYCAKDYISVWNVRASDYYWYDYWGQGTQVTVSS | low polyreactivity
